The source of these data is publication PMC11757143, “Generation and characterization of OX40-ligand fusion protein that agonizes OX40 on T-Lymphocytes” (Frontiers in Immunology, 2025).

One experiment addresses Fc-scOX40L (mouse) (UniProt P43488). Nature of the experiment: non-reducing SDS-PAGE and immunoblot; recombinant OX40L proteins in Laemmli sample buffer, non-heated/non-reducing, SDS-PAGE, immunoblot with anti-PA tag antibody; oligomers judged by molecular weight.
The target of another experiment is scOX40L-Fc (mouse) (UniProt P43488). The description is as above.

The stoichiometry N is a count of units in the complex or per binding partner. Turning to “Fc-scOX40L (from UniProt P43488 51-198; P43488 51-198; P43488 51-198) (Fc fusion)”, the stoichiometry N in the experiment with Fc-scOX40L (mouse) was 2.
“scOX40L-Fc (from UniProt P43488 51-198; P43488 51-198; P43488 51-198) (Fc fusion)”: the stoichiometry N with scOX40L-Fc (mouse) came out at 2.
